According to patent publication US20240279309A1:
Values joined by “and” are separate entries in the source; they are usually repeats but may differ in a detail not shown here. Equal values may be shown once.

Target: CD40 receptor on cells (HEK293 reporter cells expressing CD40; primary human B cells) (human) (UniProt P25942)
Test: cell-based or functional assay

Sequence of anti-CD40 monoclonal antibody corresponding to sequence 21.4.1 of U.S. Pat. No. 7,338,660 B2 (VH): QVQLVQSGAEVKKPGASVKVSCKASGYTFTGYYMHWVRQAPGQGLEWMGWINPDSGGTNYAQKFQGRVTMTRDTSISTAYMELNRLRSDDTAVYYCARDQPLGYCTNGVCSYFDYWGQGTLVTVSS
Sequence of anti-CD40 monoclonal antibody corresponding to sequence 21.4.1 of U.S. Pat. No. 7,338,660 B2 (VL): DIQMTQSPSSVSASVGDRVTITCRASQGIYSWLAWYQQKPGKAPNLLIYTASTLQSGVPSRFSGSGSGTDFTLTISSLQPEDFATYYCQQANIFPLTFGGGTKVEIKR
Sequence of CD40 receptor on cells (HEK293 reporter cells expressing CD40; primary human B cells) (human) (P25942 21-277): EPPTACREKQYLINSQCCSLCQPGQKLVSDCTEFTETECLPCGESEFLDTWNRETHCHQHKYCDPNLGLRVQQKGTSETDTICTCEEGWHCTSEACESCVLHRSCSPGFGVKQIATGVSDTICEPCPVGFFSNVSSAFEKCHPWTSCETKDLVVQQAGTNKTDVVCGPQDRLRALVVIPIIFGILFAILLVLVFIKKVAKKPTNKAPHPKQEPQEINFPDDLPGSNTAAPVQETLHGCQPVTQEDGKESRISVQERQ

EC50 [nM], % CD86, human B cells with FAP-CHO, w HSA: 0.88 nM and 0.3 nM
EC50 [nM], % CD86, human B cells with FAP-CHO, w/o HSA: 1.9 nM and 0.51 nM
EC50 [nM], MFI CD86, human B cells with FAP-CHO, w HSA: 0.51 nM and 2.05 nM
EC50 [nM], MFI CD86, human B cells with FAP-CHO, w/o HSA: 1.13 nM and 4.73 nM
Efficacy [MFI at highest dose], MFI CD86, human B cells with FAP-CHO, w HSA: 1530 MFI and 1870 MFI
Efficacy [MFI at highest dose], MFI CD86, human B cells with FAP-CHO, w/o HSA: 1340 MFI and 2060 MFI
Efficacy [MFI at highest dose], MFI CD86, human B cells with WT-CHO (no FAP), w HSA: 1470 MFI and 1900 MFI
Efficacy [MFI at highest dose], MFI CD86, human B cells with WT-CHO (no FAP), w/o HSA: 1390 MFI and 2050 MFI
Substance: anti-CD40 monoclonal antibody corresponding to sequence 21.4.1 of U.S. Pat. No. 7,338,660 B2
